Data: paper PMC10864275 (2024)
Read-outs that look alike come from different tables or passages of the source.

How the values were obtained:
[1] = target: T1, avi-β1AR-W (turkey β1-adrenergic receptor, β1AR-MetΔ5 construct with N-terminal biotinylated avi-tag) (turkey, UniProt P07700 1-367, Δ3-32 | Δ244-271 | C358A^8.59 | C116L^3.27 | R68S^1.59 | E130W^3.41 | …, biotin on the avi-tag); test: BLI; isoprenaline
[2] = target: T2, avi-β1AR-E (turkey β1-adrenergic receptor, β1AR-E construct with N-terminal biotinylated avi-tag) (turkey, UniProt P07700 1-367, Δ3-32 | Δ244-271 | C358A^8.59 | C116L^3.27 | R68S^1.59 | F327A^7.37 | …, biotin on the avi-tag); test: BLI; isoprenaline
[3] = target: T1, avi-β1AR-W (turkey β1-adrenergic …); test: BLI; isoprenaline; remark: listed apart in the source
[4] = target: T1, avi-β1AR-W (turkey β1-adrenergic …); test: BLI; salbutamol
[5] = target: T2, avi-β1AR-E (turkey β1-adrenergic …); test: BLI; salbutamol
[6] = target: T1, avi-β1AR-W (turkey β1-adrenergic …); test: BLI; isoprenaline; remark: listed apart in the source
[7] = target: T2, avi-β1AR-E (turkey β1-adrenergic …); test: BLI; isoprenaline; remark: listed apart in the source
[8] = target: T1, avi-β1AR-W (turkey β1-adrenergic …); test: BLI; isoprenaline; remark: listed apart in the source
[9] = target: T1, avi-β1AR-W (turkey β1-adrenergic …); test: BLI; xamoterol
[10] = target: T2, avi-β1AR-E (turkey β1-adrenergic …); test: BLI; xamoterol

T1 sequence (P07700 other isoform, or with tags, fused parts or gaps with the stated changes): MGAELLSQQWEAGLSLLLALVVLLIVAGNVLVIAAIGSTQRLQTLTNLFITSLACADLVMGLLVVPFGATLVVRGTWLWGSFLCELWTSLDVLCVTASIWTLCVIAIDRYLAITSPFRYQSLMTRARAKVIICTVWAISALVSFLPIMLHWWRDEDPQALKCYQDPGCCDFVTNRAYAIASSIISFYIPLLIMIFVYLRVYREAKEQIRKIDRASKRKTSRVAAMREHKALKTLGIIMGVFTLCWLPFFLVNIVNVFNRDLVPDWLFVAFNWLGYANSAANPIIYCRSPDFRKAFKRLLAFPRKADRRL
T2 sequence (P07700 other isoform, or with tags, fused parts or gaps with the stated changes): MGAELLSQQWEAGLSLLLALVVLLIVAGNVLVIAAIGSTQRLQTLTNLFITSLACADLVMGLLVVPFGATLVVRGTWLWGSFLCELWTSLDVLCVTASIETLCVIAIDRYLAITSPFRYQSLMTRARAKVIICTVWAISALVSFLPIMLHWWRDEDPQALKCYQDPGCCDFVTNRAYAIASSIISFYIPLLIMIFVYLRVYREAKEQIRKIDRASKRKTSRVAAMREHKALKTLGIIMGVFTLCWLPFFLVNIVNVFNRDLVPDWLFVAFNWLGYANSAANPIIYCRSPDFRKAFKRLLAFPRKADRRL

B1: mini-Gs/q R70 (domain or fragment)
chain: IEKQLQKDKQVYRATHRLLLLGADNSGKSTIVKQMRIYHTSGIFETKFQVDKVNFHMFDVGGQRDERRKWIQCFNDVTAIIFVVDSSDYNRLQEALNDFKSIWNNRWLRTISVILFLNKQDLLAEKVLAGKSKIEDYFPEFARYTTPEDATPEPGEDPRVTRAKYFIRDEFLRISTASGDGRHYCYPHFTCAVDTENARRIFNDCKDIILQMNLREYNLV
koff [1]: 0.0067 s⁻¹ | koff [2]: 0.00343 s⁻¹ | Kd [3]: 0.534 µM

B2: mini-Gs/i R43 with C96A (domain or fragment)
chain: IEKQLQKDKQVYRATHRLLLLGADNSGKSTIVKQMRIYHTSGIFETKFQVDKVNFHMFDVGGQRDERRKWIQAFNDVTAIIFVVDSSDYNRLQEALNDFKSIWNNRWLRTISVILFLNKQDLLAEKVLAGKSKIEDYFPEFARYTTPEDATPEPGEDPRVTRAKYFIRDEFLRISTASGDGRHYCYPHFTCAVDTENARRIFNDVTDIIIKMNLRDCGLF
koff [1]: 0.00623 s⁻¹ | koff [2]: 0.00397 s⁻¹ | Kd [3]: 2.53 µM

B3: mini-Go1 R12 (domain or fragment)
chain: IEKNLKEDGISAAKDVKLLLLGADNSGKSTIVKQMKIIHTTGIVETHFTFKNLHFRLFDVGGQRSERKKWIHCFEDVTAIIFCVDLSDYNRMHESLMLFDSICNNKFFIDTSIILFLNKKDLFGEKIKKSPLTICFPEYTGPNTYEDAAAYIQAQFESKNRSPNKEIYCHMTCATDTNNAQVIFDAVTDIIIANNLRGCGLY
koff [1]: 0.00941 s⁻¹ | koff [2]: 0.00393 s⁻¹ | Kd [3]: 7.41 µM

B4: mini-Gs 393 with C96A (domain or fragment)
chain: GIEKQLQKDKQVYRATHRLLLLGADNSGKSTIVKQMRIYHGGSGGSGGTSGIFETKFQVDKVNFHMFDVGGQRDERRKWIQAFNDVTAIIFVVDSSDYNRLQEALNDFKSIWNNRWLRTISVILFLNKQDLLAEKVLAGKSKIEDYFPEFARYTTPEDATPEPGEDPRVTRAKYFIRDEFLRISTASGDGRHYCYPHFTCAVDTENARRIFNDCRDIIQRMHLRQYELL
Kd [4]: 1.46 µM | Kd [5]: 0.962 µM | koff [6]: 0.00625 s⁻¹ | koff [7]: 0.00689 s⁻¹ | Kd [8]: 0.161 µM | Kd [9]: 2.97 µM | Kd [10]: 2.36 µM
